From US20240132550A1 (GlaxoSmithKline, published 2024)

Assays:
[1] = target: T1, factor H, Human (Merck Millipore) (human, UniProt P08603 19-1231); assay: SPR, full-length human factor H immobilised on CM-5 chip, fHbp analyte at 250 nM
T1 construct: mature; also called full-length factor H protein; full length fH protein

[2] = target: T2, factor H (hfH) domain 6-7 (human, UniProt P08603 321-443); assay: SPR, fH 6-7 immobilised on CM-5 chip, fHbp as analyte
T2 construct: domain: factor H 6-7 domain; also called factor H 6-7 domain; factor H domain 6-7
T2 sequence: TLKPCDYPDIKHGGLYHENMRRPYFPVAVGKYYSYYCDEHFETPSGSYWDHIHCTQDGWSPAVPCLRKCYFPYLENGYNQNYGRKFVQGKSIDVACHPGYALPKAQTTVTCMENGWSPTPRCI

[3] = target: T1, factor H, Human (Merck Millipore); assay: SPR, full-length human factor H immobilised on CM-5 chip, fHbp as analyte

T1 sequence (P08603 19-1231): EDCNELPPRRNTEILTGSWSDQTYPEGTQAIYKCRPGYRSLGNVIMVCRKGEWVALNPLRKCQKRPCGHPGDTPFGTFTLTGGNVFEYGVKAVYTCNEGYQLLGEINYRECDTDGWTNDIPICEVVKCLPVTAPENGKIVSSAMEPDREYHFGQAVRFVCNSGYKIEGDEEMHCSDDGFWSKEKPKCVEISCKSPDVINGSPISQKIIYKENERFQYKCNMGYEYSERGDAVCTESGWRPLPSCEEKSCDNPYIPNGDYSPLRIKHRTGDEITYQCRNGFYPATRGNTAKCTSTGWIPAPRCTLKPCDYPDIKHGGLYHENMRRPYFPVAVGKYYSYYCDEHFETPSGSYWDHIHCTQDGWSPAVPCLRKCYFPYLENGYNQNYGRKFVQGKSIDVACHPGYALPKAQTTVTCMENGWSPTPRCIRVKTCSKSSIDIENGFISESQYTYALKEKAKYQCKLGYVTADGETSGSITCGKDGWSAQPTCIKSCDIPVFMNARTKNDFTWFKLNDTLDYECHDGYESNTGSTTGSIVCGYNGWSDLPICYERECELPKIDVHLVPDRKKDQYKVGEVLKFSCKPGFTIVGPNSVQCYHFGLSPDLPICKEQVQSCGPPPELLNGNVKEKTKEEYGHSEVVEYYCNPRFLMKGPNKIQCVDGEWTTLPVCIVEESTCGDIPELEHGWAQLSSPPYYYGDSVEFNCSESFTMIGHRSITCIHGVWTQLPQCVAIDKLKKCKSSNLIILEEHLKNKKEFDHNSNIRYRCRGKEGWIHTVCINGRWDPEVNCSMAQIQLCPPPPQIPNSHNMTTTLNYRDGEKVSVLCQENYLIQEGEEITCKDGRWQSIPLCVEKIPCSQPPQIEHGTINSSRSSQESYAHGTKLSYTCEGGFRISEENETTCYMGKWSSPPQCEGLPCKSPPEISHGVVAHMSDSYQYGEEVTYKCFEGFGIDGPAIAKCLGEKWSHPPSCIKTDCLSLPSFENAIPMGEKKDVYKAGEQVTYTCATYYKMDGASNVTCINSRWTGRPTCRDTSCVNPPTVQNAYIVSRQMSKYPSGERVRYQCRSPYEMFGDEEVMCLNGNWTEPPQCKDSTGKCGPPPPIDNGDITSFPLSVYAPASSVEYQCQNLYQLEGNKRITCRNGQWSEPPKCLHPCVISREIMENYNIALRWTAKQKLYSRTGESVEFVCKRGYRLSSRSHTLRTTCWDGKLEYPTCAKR

B1: fHbp v1.15 (other)
chain: VAADIGAGLADALTAPLDHKDKGLKSLTLEDSISQNGTLTLSAQGAERTFKAGDKDNSLNTGKLKNDKISRFDFIRQIEVDGQLITLESGEFQVYKQSHSALTALQTEQVQDSEHSGKMVAKRQFRIGDIVGEHTSFGKLPKDVMATYRGTAFGSDDAGGKLTYTIDFAAKQGHGKIEHLKSPELNVDLAAADIKPDEKHHAVISGSVLYNQAEKGSYSLGIFGGQAQEVAGSAEVETANGIRHIGLAAKQLEHHHHHH
B1: binds [1].

B2: fHbp v1.15 E214A (other)
chain: VAADIGAGLADALTAPLDHKDKGLKSLTLEDSISQNGTLTLSAQGAERTFKAGDKDNSLNTGKLKNDKISRFDFIRQIEVDGQLITLESGEFQVYKQSHSALTALQTEQVQDSEHSGKMVAKRQFRIGDIVGEHTSFGKLPKDVMATYRGTAFGSDDAGGKLTYTIDFAAKQGHGKIEHLKSPELNVDLAAADIKPDEKHHAVISGSVLYNQAAKGSYSLGIFGGQAQEVAGSAEVETANGIRHIGLAAKQLEHHHHHH
notes: also called v1.15 ΔG (E214A) + His tag
B2: binds [1].

B3: fHbp v1.15 E214A/S219R (other)
chain: VAADIGAGLADALTAPLDHKDKGLKSLTLEDSISQNGTLTLSAQGAERTFKAGDKDNSLNTGKLKNDKISRFDFIRQIEVDGQLITLESGEFQVYKQSHSALTALQTEQVQDSEHSGKMVAKRQFRIGDIVGEHTSFGKLPKDVMATYRGTAFGSDDAGGKLTYTIDFAAKQGHGKIEHLKSPELNVDLAAADIKPDEKHHAVISGSVLYNQAAKGSYRLGIFGGQAQEVAGSAEVETANGIRHIGLAAKQHHHHHH
notes: also called v1.15 ΔG (E214A/S219R)
B3: no binding (tested: 250 nM) [2]; binds [1].

B4: fHbp v1.15 E214A/E235A (other)
chain: VAADIGAGLADALTAPLDHKDKGLKSLTLEDSISQNGTLTLSAQGAERTFKAGDKDNSLNTGKLKNDKISRFDFIRQIEVDGQLITLESGEFQVYKQSHSALTALQTEQVQDSEHSGKMVAKRQFRIGDIVGEHTSFGKLPKDVMATYRGTAFGSDDAGGKLTYTIDFAAKQGHGKIEHLKSPELNVDLAAADIKPDEKHHAVISGSVLYNQAAKGSYSLGIFGGQAQEVAGSAAVETANGIRHIGLAAKQHHHHHH
notes: also called v1.15 ΔG (E214A/E235A)
B4: no binding (tested: 250 nM) [2]; no binding (tested: 250 nM) [3].
